Key:
SSB1 [1] = biological target: T1, SSB1 (human, UniProt Q9BQ15 1-211); assay: EMSA; ED Fig. 2a ssDNA taken as (dT)48, the only listed ssDNA oligo; EMSA: 100 nM Cy3 probe, 20 mM Tris-HCl pH 7.5, 50 mM NaCl, 5 mM MgCl2, 0.2 mM EDTA, 1 mM DTT, on ice 30 min; 6% native PAGE, 0.5x TBE, cold room; details: protein: recombinant; label: 3' Cy3
SSB1 [2] = biological target: T1, SSB1; assay: EMSA; EMSA: 100 nM Cy3 probe, 20 mM Tris-HCl pH 7.5, 50 mM NaCl, 5 mM MgCl2, 0.2 mM EDTA, 1 mM DTT, on ice 30 min; 6% native PAGE, 0.5x TBE, cold room; details: protein: recombinant; blunt

T1 sequence (Q9BQ15 whole entry): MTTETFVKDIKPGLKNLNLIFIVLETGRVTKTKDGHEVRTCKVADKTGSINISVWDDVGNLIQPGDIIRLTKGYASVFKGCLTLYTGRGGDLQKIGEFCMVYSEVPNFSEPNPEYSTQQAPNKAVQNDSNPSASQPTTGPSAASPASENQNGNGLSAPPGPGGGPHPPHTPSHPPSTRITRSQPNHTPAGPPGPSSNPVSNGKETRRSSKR

TTTTTTTTTTTTTTTTTTTTTTTTTTTTTTTTTTTTTTTTTTTTTTTT (ssDNA) [oligo (dT)48]: binds (SSB1 [1]).

B1: Blunt-end dsDNA (30 bp) random (dsDNA)
DNA 1: GAGCTACCAGCTACCCCGTATGTCAGAGAG
DNA 2: CTCTCTGACATACGGGGTAGCTGGTAGCTC
B1: no binding (SSB1 [2]).
